The results in this text go back to patent publication US20250074980A1 (BRIGHAM AND WOMEN S HOSPITAL, published 2025).

Experiment [1] concerns the target T1, His-tagged CEACAM1 (human, UniProt P13688 35-428).
T1 construct: 45 kDa SPR analyte; also called CEACAM1-HIS; CEACAM1 analyte
T1 sequence: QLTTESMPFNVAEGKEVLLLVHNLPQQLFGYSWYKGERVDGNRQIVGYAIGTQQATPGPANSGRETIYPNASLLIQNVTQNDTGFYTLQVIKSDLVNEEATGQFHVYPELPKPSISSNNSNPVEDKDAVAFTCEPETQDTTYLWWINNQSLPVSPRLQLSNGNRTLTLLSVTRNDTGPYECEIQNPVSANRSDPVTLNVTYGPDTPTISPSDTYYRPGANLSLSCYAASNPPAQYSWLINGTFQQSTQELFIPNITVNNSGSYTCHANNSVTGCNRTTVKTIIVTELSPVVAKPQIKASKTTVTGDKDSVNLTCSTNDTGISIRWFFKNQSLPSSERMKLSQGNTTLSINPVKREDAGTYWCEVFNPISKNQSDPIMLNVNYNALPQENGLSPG
Nature of the experiment: SPR multi-cycle. The essentials:
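Kon, koff, Kd and relative KD were derived from multi-cycle surface plasmon resonance sensorgrams recorded on a Biacore T200. Runs were at 25° C in HBS-P+ (pH 7.4), with purified antibody at 1 μg/ml captured to ~75 RU on a Series S Protein A chip. His-tagged CEACAM1 was passed over as analyte at 80 μl/min in 2-fold dilutions from 200 to 3.125 nM or from 100 to 1.5625 nM, with 50 or 150 seconds of association, 100 seconds of dissociation and glycine-HCl pH 1.5 for regeneration.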

The target of experiment [2] is T2, CEACAM1 on transfected HeLa cells (human, UniProt P13688 35-526).
T2 construct: also called HeLa-CEACAM1; HeLa C1
T2 sequence: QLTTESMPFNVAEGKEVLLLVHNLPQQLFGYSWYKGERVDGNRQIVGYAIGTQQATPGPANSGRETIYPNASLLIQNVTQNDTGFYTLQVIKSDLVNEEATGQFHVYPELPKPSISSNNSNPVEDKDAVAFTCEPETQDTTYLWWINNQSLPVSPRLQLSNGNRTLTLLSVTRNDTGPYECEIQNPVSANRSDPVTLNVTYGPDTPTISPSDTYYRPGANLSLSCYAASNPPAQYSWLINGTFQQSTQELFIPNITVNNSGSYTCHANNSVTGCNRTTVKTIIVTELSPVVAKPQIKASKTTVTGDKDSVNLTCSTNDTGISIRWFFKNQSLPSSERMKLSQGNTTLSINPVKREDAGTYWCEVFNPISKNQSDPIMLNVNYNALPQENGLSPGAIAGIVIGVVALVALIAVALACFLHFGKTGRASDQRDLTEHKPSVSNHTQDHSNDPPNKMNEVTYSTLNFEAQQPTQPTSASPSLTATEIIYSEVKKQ
Nature of the experiment: flow cytometry, transfected HeLa.

Experiment [3] deals with T3, CEACAM5 on transfected HeLa cells (human, UniProt P06731 35-685).
T3 construct: whole, on cells; also called HeLa-CEACAM5; HeLa C5
T3 sequence (looked up): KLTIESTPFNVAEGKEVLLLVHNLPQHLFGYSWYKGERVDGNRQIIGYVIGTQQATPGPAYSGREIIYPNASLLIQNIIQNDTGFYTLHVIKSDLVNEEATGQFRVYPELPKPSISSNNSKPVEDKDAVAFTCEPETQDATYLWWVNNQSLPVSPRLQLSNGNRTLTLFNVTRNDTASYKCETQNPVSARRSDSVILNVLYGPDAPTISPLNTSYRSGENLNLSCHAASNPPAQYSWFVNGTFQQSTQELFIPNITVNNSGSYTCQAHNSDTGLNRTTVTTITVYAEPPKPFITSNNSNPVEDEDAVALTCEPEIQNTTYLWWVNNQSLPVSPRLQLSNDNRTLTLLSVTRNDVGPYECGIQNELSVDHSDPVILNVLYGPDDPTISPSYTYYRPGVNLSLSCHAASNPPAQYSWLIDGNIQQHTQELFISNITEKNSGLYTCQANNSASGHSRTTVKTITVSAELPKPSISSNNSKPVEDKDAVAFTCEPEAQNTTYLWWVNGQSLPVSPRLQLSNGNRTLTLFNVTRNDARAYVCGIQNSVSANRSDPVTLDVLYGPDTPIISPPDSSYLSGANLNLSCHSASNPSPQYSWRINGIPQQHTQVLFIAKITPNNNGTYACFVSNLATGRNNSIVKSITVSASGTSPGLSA
Nature of the experiment: flow cytometry, transfected HeLa.

For experiment [4], the target named is T4, CEACAM6 on transfected HeLa cells (human, UniProt P40199 35-320).
T4 construct: whole, on cells; also called HeLa-CEACAM6; HeLa C6
T4 sequence (looked up): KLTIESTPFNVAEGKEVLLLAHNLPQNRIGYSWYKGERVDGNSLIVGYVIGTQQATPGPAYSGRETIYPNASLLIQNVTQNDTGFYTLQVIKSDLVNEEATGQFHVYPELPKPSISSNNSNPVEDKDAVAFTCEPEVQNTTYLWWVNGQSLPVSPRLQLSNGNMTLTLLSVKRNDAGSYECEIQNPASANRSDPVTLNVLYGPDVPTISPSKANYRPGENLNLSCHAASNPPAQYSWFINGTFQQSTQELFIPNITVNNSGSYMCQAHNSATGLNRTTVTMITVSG
Description: flow cytometry, transfected HeLa.

Experiment [5] addresses T5, GST-CEACAM1 (human, UniProt P13688 35-141, limits assumed).
T5 construct: also called human CEACAM1-GST protein
T5 sequence: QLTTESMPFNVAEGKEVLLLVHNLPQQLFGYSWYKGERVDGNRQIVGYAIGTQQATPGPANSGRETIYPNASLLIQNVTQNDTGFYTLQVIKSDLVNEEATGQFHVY
Nature of the experiment: competition ELISA vs parental murine antibody. The method, then:
The binding of the purified antibodies to human CEACAM1 was assessed in a competition ELISA assay. Nunc Immuno MaxiSorp 96 well flat bottom microtitre plates were pre-coated with 1 μg/ml of GST-CEACAM1 in 1×PBS, overnight at 4° C. The following day the plates were blocked for 1 hour at room temperature (“RT”) with 2% BSA/PBS before washing 3× with PBST pH 7.4. A 3-fold dilution series of the chimeric antibody chimeric antibody VH0/Vκ0, an irrelevant IgG4 antibody, and the humanized CEACAM1 antibodies from 100 μg/ml to 0.07 or 0.002 μg/ml were pre-mixed with a constant concentration of parental murine antibody (0.45 μg/ml final concentration), added to the plate and incubated for 1 hour at room temperature. Following 3×PBST washes, the binding of the parental murine CEACAM1 antibody was detected with an anti-mouse-HRP and TMB substrate. The reaction was stopped with 3 M HCl, absorbance read at 450 nm on a Dynex Technologies MRX TC II plate reader and the binding curves plotted. The binding of the humanized CEACAM antibody variants to CEACAM1 was compared to the chimeric antibody (VHO/Vκ0), which was included on each plate.
In general terms: An ELISA detects its analyte on a solid surface through an enzyme-linked reagent.

The target in experiment [6] is T5, GST-CEACAM1. Nature of the experiment: competition ELISA vs parental murine antibody, experiment 1.
Experiment [7] has as its target T5, GST-CEACAM1. Description: competition ELISA vs parental murine antibody, experiment 2.

What is called Kd is a measure of binding affinity in units of concentration. The term koff denotes a measure of how fast the partners let go of each other. In general, kon refers to a measure of how fast the partners come together.

B1: VH0/Vκ0 S29A (antibody, IgG4, V domains shown)
VH: EVQLVESGGDLVKPGGSLKLACAASGFIFSSHGMSWVRQTPDKRLEWVATISSGGTYTYYPDSVKGRFTISRDNDKNTLYLQMNSLKSEDTAMYYCARHDFDYDAAWFAYWGQGTLVTVSS
VL: QIVLTQSPALMSASPGVKVTMTCSANSAVSYMYWYRQKPRSSPKPWIYLTSNLASGVPARFSGSGSGTSYSLTISSMEAEDAATYYCQQWSSNPPTFGSGTKLEIK
notes: aglycosylated chimeric, IgG4 (S241P), kappa
As to B1, in experiment [1], the Kd was 110 nM. The koff in experiment [1] amounted to 0.0277 s⁻¹. The molecule also registered a kon in experiment [1] of 251000 M⁻¹ s⁻¹. Also, the “relative KD” value in experiment [1] is 1.05. For the same molecule, the entries for the “relative amount of cells bound” value in experiment [2], in experiment [3] and in experiment [4] were 77.9, 9.82 and 0, respectively. Also, the average relative IC50 in experiment [5] came to 0.84. Also, the relative IC50 amounted to 0.96 in experiment [6] and 0.72 in experiment [7].
